Experimental data from patent publication US20070142318A1, “Compositions, methods and kits for repressing virulence in gram positive bacteria” (priority 2004, published 2007).
Numbering of substitutions follows the chain as printed. Names and notes keep the numbering of the source. Read-outs that look alike come from different tables or passages of the source.

How the values were obtained:
[1] = system: CodY S215T S215T (Bacillus subtilis); experiment: EMSA
[2] = system: CodY R214E R214E (Bacillus subtilis); experiment: EMSA; conditions: GTP + ILV; also >500 without effectors
[3] = system: CodY A207D A207D (Bacillus subtilis); experiment: EMSA; conditions: GTP + ILV; also >500 without effectors
[4] = system: CodY (Bacillus subtilis); experiment: EMSA; conditions: 2 mM GTP + 10 mM each Ile, Leu, Val; 150 nM without effectors
[5] = system: CodY (Staphylococcus aureus); experiment: EMSA; conditions: concentration giving shift; 2 mM GTP + 10 mM each Ile, Val, Leu
[6] = system: wild-type cells; conditions: excess nutrients; cited from earlier work
[7] = system: ilvB promoter lacZ fusions; conditions: GTP limitation by addition of decoyinine; cited from earlier work
[8] = molecular target: T1, CodY (Bacillus subtilis, UniProt P39779); experiment: Gel shift assay, stimulation of CodY binding to target DNA by effectors; set-up: species or system B. subtilis; conditions: for stimulation of CodY binding to new target genes and dpp promoter region: amino acids 10-30 mM
T1 sequence (P39779 1-259): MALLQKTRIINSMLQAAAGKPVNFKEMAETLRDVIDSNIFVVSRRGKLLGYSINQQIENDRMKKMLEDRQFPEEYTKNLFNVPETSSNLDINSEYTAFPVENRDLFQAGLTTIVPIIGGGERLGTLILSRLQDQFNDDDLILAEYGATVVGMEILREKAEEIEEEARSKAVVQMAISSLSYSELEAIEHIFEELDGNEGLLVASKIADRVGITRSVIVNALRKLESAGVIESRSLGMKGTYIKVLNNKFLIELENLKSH
Procedure: A test of whether BCAAs have any direct effect on CodY activity was performed. […] In all cases, the apparent dissociation constant for binding was substantially below the concentration of CodY inside the cell (4 μM, see below). […] By regulating gene expression in response to both the GTP level and the availability of certain amino acids, CodY can insure that the cell responds in a coherent way to many types of nutritional stress.
The effects of GTP and BCAAs at different CodY targets can vary. At several target sites, BCAAs and GTP were each found to have small stimulatory effects on binding (in a gel shift assay), but the mixture strongly stimulates (FIG. 1). […] Some genes may respond to CodY in its GTP-bound conformation, other genes to CodY in its BCAA-bound conformation, and still other genes to CodY bound to both kinds of effectors. These variations could reflect differences in specificity of binding or differences in affinity of binding.
The concentration dependence of stimulation of DNA binding by effectors is assessed. At the dpp promoter, GTP at 600 μM increased the fraction of DNA that was bound by a constant concentration of CodY (in a gel shift assay) from 10% to 50%. Titration assays of this type, using varying concentrations of GTP, isoleucine, and valine, provide a measure of the effective concentrations of each of these effectors.

[9] = molecular target: T1, CodY; conditions: cited from earlier work
[10] = molecular target: T1, CodY; conditions: cited from earlier work; remark: listed apart in the source
[11] = system: dpp-lacZ; experiment: dpp-lacZ expression in vivo (β-galactosidase); conditions: for β-galactosidase expression (Miller units) in mid-exponential cells: dpp-lacZ; for derepression of expression in vivo: versus wild type
[12] = molecular target: dpp promoter region; experiment: Gel mobility shift assay of CodY binding to the dpp promoter region; conditions: CodY concentration that shifted 50% of the DNA
[13] = read-out: Estimated KD (nM), +GTP, ILV, GTP (2 mM) and isoleucine, valine and leucine (10 mM each)
[14] = read-out: Estimated KD (nM), No effectors

Molecule: dpp promoter region
- Kd [1]: > 0.5 µM
- Kd [2]: > 0.5 µM
- Kd [3]: > 0.5 µM
- Kd [4]: 0.02 µM

Molecule: hla promoter region
- binding [5]: 160 nM

Molecule: nuc promoter region
- binding [5]: 160 nM

Molecule: C=C1O[C@@](CO)(n2cnc3c(N)ncnc32)[C@H](O)[C@@H]1O [decoyinine]
- sporulation of wild-type cells [6]: failed to sporulate efficiently unless decoyinine was added
- induction of ilvB-lacZ fusions with or without T-box [7]: induced both fusions

Molecule: CC(C)[C@H](N)C(=O)O [valine]
- stimulation of CodY binding to new target genes and dpp promoter region [8]: stimulated significantly

Molecule: CC(C)C[C@H](N)C(=O)O [leucine]
- stimulation of CodY binding to new target genes and dpp promoter region [8]: not

Molecule: CC[C@H](C)[C@H](N)C(=O)O [isoleucine]
- stimulation of CodY binding to new target genes and dpp promoter region [8]: stimulated significantly

Molecule: Nc1nc2c(ncn2[C@@H]2O[C@H](COP(=O)(O)OP(=O)(O)OP(=O)(O)O)[C@@H](O)[C@H]2O)c(=O)[nH]1 [GTP, guanosine triphosphate]
- binding to CodY compared with ATP, CTP or UTP [9]: more avidly
- fraction of DNA bound by a constant concentration of CodY ([8]; dpp promoter, GTP at 600 μM, 10% without): 50%
- effect on CodY binding at the yhdG regulatory region ([8]; yhdG regulatory region, alone or in combination): only a small effect
- repression of dpp transcription by CodY ([10]; 300 μM GTP (typical of early stationary phase cells)): almost no repression
- inhibition of dpp transcription by CodY ([10]; 2 mM GTP): ~80%
- EC50 ([10]; read-out: GTP concentration giving 50% repression of transcription from the dpp promoter): ~1500 µM

B1: A207D (protein, UniProt P39779 2-259, looked up, variant A207D)
Global transcriptional …: ALLQKTRIINSMLQAAAGKPVNFKEMAETLRDVIDSNIFVVSRRGKLLGYSINQQIENDRMKKMLEDRQFPEEYTKNLFNVPETSSNLDINSEYTAFPVENRDLFQAGLTTIVPIIGGGERLGTLILSRLQDQFNDDDLILAEYGATVVGMEILREKAEEIEEEARSKAVVQMAISSLSYSELEAIEHIFEELDGNEGLLVASKIDDRVGITRSVIVNALRKLESAGVIESRSLGMKGTYIKVLNNKFLIELENLKSH
- derepression in vivo [11]: severe derepression
- β-galactosidase expression (Miller units) in mid-exponential cells [11]: 130 Miller units
- Kd [12, 13]: > 500 nM
- Kd [12, 14]: > 500 nM

B2: S215T (protein, UniProt P39779 2-259, looked up, variant S215T)
Global transcriptional …: B1 Global transcriptional … with D206A, S214T
- β-galactosidase expression (Miller units) in mid-exponential cells [11]: 150 Miller units
- derepression of expression in vivo [11]: 2 fold
- Kd [12, 13]: > 500 nM

B3: R214E (protein, UniProt P39779 2-259, looked up, variant R214E)
Global transcriptional …: B1 Global transcriptional … with D206A, R213E
- derepression in vivo [11]: severe derepression
- β-galactosidase expression (Miller units) in mid-exponential cells [11]: 94 Miller units
- Kd [12, 13]: > 500 nM
- Kd [12, 14]: > 500 nM

B4: S215F (protein, UniProt P39779 2-259, looked up, variant S215F)
Global transcriptional …: B1 Global transcriptional … with D206A, S214F
- derepression in vivo [11]: severe derepression
- β-galactosidase expression (Miller units) in mid-exponential cells [11]: 12 Miller units
- Kd [12, 13]: 350 to 400 nM

B5: WT: wild-type B. subtilis CodY, a GTP-activated repressor protein (protein)
chain: B1 Global transcriptional … with D206A
- β-galactosidase expression (Miller units) in mid-exponential cells [11]: 6 Miller units
- Kd [12, 13]: 20 nM
- Kd [12, 14]: 150 nM

B6: V218D (protein, UniProt P39779 2-259, looked up, variant V218D)
Global transcriptional …: B1 Global transcriptional … with D206A, V217D
- derepression in vivo [11]: severe derepression
- β-galactosidase expression (Miller units) in mid-exponential cells [11]: 14 Miller units
- Kd [12, 13]: 150 to 200 nM

B7: V218A (protein, UniProt P39779 2-259, looked up, variant V218A)
Global transcriptional …: B1 Global transcriptional … with D206A, V217A
- Kd [12, 13]: 100 to 200 nM
- Kd [12, 14]: 250 to 500 nM

B8: R214K (protein, UniProt P39779 2-259, looked up, variant R214K)
Global transcriptional …: B1 Global transcriptional … with D206A, R213K
- derepression of expression in vivo [11]: 2 fold
